Measurements from patent US20180066067A1 (Novartis, published 2018).

T1: Fc-ZNRF3 ECD (extracellular domain, amino acids 56-219 of SEQ ID NO: 1) (human, UniProt Q9ULT6 56-219)
T1 construct: The order of the parts follows the printed name 'Fc-ZNRF3 ECD'; also called purified ZNRF3 extracellular domain; not shown: Fc part
T1 sequence: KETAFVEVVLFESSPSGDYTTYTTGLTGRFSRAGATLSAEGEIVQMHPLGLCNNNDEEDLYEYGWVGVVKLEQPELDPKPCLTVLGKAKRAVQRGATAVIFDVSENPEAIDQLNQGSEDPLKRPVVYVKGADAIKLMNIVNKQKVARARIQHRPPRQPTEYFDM

T2: ZNRF3 ΔRING (missing amino acids 293-334), stably expressed on HEK293 cells (human, UniProt Q9ULT6 56-936)
T2 construct: No tag is stated for the cell line used in FACS; also called ZNRF3 lacking the RING domain
T2 sequence: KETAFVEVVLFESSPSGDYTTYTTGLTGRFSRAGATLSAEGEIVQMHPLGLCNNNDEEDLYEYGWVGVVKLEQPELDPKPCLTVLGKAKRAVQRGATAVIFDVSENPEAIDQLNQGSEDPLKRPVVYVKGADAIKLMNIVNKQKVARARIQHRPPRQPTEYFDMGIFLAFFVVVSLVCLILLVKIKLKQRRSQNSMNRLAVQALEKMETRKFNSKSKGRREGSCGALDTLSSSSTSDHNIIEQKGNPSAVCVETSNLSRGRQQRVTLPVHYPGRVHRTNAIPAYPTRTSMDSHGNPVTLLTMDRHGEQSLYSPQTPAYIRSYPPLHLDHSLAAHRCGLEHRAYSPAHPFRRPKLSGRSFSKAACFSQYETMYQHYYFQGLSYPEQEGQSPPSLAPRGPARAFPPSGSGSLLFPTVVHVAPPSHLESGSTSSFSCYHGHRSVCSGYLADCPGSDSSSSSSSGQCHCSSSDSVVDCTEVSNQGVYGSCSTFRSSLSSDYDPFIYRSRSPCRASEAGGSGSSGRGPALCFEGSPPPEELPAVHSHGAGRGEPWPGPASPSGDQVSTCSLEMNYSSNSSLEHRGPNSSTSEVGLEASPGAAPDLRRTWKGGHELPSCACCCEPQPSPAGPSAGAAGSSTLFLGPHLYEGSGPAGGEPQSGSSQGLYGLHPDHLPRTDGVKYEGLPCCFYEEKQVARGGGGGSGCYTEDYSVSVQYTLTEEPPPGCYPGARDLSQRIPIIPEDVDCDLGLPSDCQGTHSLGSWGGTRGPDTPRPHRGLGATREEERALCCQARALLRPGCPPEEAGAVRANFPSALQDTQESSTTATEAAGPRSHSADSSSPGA

T3: N-terminal Myc-tagged FZD4 (Frizzled 4) (UniProt Q9ULV1 37-537, limits assumed)
T3 construct: whole, on cells; On transiently transfected HEK293 cells; not shown: N-terminal Myc tag
T3 sequence (looked up): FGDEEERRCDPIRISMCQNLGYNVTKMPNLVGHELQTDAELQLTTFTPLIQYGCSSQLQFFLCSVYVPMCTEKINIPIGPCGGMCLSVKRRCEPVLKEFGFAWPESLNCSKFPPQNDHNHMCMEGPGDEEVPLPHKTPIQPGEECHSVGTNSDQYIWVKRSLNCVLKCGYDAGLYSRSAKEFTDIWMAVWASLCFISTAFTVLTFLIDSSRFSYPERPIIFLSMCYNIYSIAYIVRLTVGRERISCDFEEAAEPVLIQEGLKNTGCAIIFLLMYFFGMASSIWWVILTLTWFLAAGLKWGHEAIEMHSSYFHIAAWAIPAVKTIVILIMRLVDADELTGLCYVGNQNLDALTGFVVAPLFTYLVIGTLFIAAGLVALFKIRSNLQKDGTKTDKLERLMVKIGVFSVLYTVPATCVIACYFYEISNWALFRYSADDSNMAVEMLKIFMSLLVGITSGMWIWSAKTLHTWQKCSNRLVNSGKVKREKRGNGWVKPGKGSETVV

B1: RSPO1-GFP (ligand, UniProt Q2MKA7 21-263, looked up)
chain: SRGIKGKRQRRISAEGSQACAKGCELCSEVNGCLKCSPKLFILLERNDIRQVGVCLPSCPPGYFDARNPDMNKCIKCKIEHCEACFSHNFCTKCKEGLYLHKGRCYPACPEGSSAANGTMECSSPAQCEMSEWSPWGPCSKKQQLCGFRRGSEERTRRVLHAPVGDHAACSDTKETRRCTVRRVPCPEGQKRRKGGQGRRENANRNLARKESKEAGAGSRRRKGQQQQQQQGTVGPLTSAGPA
notes: Used as conditioned medium; The order of the parts follows the printed name; also called R-spondin 1 GFP fusion; R-spondin; not shown: GFP

Tests used:
[1] = biological target: T1, Fc-ZNRF3 ECD (extracellular domain, …); test: ELISA on Fc-ZNRF3 ECD
[2] = biological target: T2, ZNRF3 ΔRING (missing amino acids …); test: FACS on HEK293 cells stably expressing ZNRF3 ΔRING
[3] = biological target: B1; test: cell-based binding assay: RSPO1-GFP conditioned medium for 1 hour on transfected HEK293 cells, immunofluorescence
Experimental: (§1) Since ZNRF3 regulates the membrane level of Frizzled proteins, we tested whether R-spondin enhances Wnt signaling through inhibiting ZNRF3. […] To do so, the inventors transiently transfected HEK293 cells with N-terminal Myc-tagged FZD4 (Frizzled 4), or ZNRF3 ECD-TM, or ZNRF3 P103A ECD-TM, then incubated these cells with RSPO1-GFP conditioned medium for 1 hour. We determined the binding of RSPO1-GFP to Myc tagged proteins expressed on the cell surface using immunoflurorescence using anti-GFP and anti-Myc antibodies.

[4] = biological target: T3, N-terminal Myc-tagged FZD4 (Frizzled 4); test: as above
Experimental: as §1

| Binder | binding result [1] | binding result [2] | binding result [3] | binding result [4] |
| --- | --- | --- | --- | --- |
| Fab clone Ab1 (Fab, V domains shown, Fab from phage display panning on Fc-ZNRF3 ECD; Light chain Lch-lambda3, heavy chain Hch-VH1B; the heavy chain entry carries C-terminal tags; also called ZNRF3 hFab) VH: QVQLVQSGAEVKKPGASVKVSCKASGYTFTSYHMHWVRQAPGQGLEWMGWINPYTGDTNYAQKFQGRVTMTRDTSISTAYMELSRLRSEDTAVYYCAREKVYMDIWGQGTLVTVSS VL: DIELTQPPSVSVSPGQTASITCSGDSIPSKYAHWYQQKPGQAPVLVIYGKSHRPSGIPERFSGSNSGNTATLTISGTQAEDEADYYCAAWDLLGDGWVFGGGTKLTVLG | binds | binds | – | – |
| Fab clone Ab2 (Fab, V domains shown, also called parental Ab2; ZNRF3 hFab) VH: EVQLVESGGGLVKPGGSLRLSCAASGFTFSDYGIHWVRQAPGKGLEWVGRIKSKTDGGITEYAAPVKGRFTISRDDSKNTLYLQMNSLKTEDTAVYYCARAIYYLEAFDVWGQGTLVTVSS VL: DIELTQPPSVSVSPGQTASITCSGDSLGSYYVHWYQQKPGQAPVLVIYRNKQRPSGIPERFSGSNSGNTATLTISGTQAEDEADYYCQTYDWMYSSRVFGGGTKLTVLG | binds | binds | – | – |
| ZNRF3 P103A ECD-TM (receptor, not shown: small tags and cut ends, On transiently transfected HEK293 cells, N-terminally Myc-tagged) KETAFVEVVLFESSPSGDYTTYTTGLTGRFSRAGATLSAEGEIVQMHALGLCNNNDEEDLYEYGWVGVVKLEQPELDPKPCLTVLGKAKRAVQRGATAVIFDVSENPEAIDQLNQGSEDPLKRPVVYVKGADAIKLMNIVNKQKVARARIQHRPPRQPTEYFDMGIFLAFFVVVSLVCLILLVKIKLKQRRSQNSMNRLAV | – | – | no binding | – |
| B1 | – | – | – | no binding |
